These results are taken from paper PMC7933130 (Nature, 2021).

The series concerns the molecule itself. The experiment in a line: SEC-MALS. (In general: SEC sorts molecules by how far they enter the pores of the column.)

What is called stoichiometry N is the number of molecules, sites or subunits per partner or assembly.

B1: human Na+-dependent citrate transporter NaCT (SLC13A5), wildtype (natural protein)
chain: not shown
modifications: one glycan unit connected to Asn562 (N-glycosylation site)
As to B1, the “stoichiometry N” value was found to be 2.
